Assay results: patent publication US20220233746A1, “PHARMACEUTICAL COMPOSITION FOR JOINT DISEASE TREATMENT AND METHOD FOR PRODUCING SAME” (EDUCATIONAL FOUNDATION OF OSAKA MEDICAL AND PHARMACEUTICAL …, priority 2019, published 2022)

Tests used:
[1] = Measurement of mechanical strength of peptide hydrogel (rheology measurement, rheometer); format: physicochemical
Protocol: Next, an equal amount (100 μL) of 2×PBS, 4×PBS, 6×PBS or 10×PBS was added to the aqueous peptide solution and mixed. Therefore, the final concentration of PBS in the mixture was 1×PBS, 2×PBS, 3×PBS, and 5×PBS, respectively. Thereafter, it was allowed to stand still in a cool and dark place for one day. As a result, the peptide in the aqueous peptide solution self-assembled by the action of the salt in PBS, and a peptide hydrogel was obtained. In addition, as a comparative example, Eagle's minimum essential medium (EMEM), which contains salts necessary for gel formation but is considered to be toxic in vivo, or 10 wt % NaCl aqueous solution (final concentration is 5 wt %) was added in an equal amount to the peptide aqueous solution and mixed, and the mixture was allowed to stand still in a cool and dark place for 1 day. A peptide hydrogel was also obtained in this comparative example.
[Example 2: Measurement of mechanical strength of peptide hydrogel] In order to evaluate the mechanical strength of each peptide hydrogel obtained as described above, a rheometer (HAAKE viscosity/viscoelasticity measuring device (HAAKE MARS40) manufactured by Thermo Scientific) was used for each peptide hydrogel and the rheology thereof was measured.

rabbit meniscus defect = experiment: Rabbit meniscus defect model, transplantation of peptide hydrogel into the defect; format: in vivo, Japanese white rabbits
Protocol: First, 20 male Japanese white rabbits weighing 3.0 to 3.4 kg at 6 months of age were prepared, and a cylindrical defect with a diameter of 2.0 mm was prepared in the medial anterior segment of the meniscus of both knees (FIG. 2A). Further, a peptide hydrogel produced by the above method using a peptide of KI24RGDS and 5×PBS was prepared (FIG. 2B), and the peptide hydrogel was filled in the defect. The group in which the defect was filled with peptide hydrogel was designated as the KI24RGDS group, and the group in which no treatment was applied to the defect was designated as the control group. After transplantation, tissue evaluation was performed on the knees of each group using hematoxylin/eosin staining (HE staining) or safranin O staining. Tissue evaluation was performed at 2, 4, 8 and 12 weeks after transplantation, and 5 animals (10 knees) were evaluated at each evaluation period. In addition, the tissue evaluation used Ishida score and Quantitative Analysis of the Occupation Ratio of Tissue Regeneration (R/D ratio). In the evaluation based on Ishida score, scores were given from the three viewpoints shown in Table 1 below, and the degree of tissue repair was evaluated by the total. On the other hand, in the evaluation based on the R/D ratio, the degree of tissue repair was evaluated by analyzing the area of the entire defect (D) and the area of the repaired tissue (R) and calculating the ratio of R/D using ImageJ software as shown in FIG. 3.

[2] = hydrogel made with 5×PBS filled in 2.0 mm meniscus defect, 2, 4, 8 and 12 weeks after transplantation, versus untreated control group

IKIKIKIKIKRGDSKIKIKIKIKI (Peputide including strand and turn) [KI24RGDS, self-assembling β-hairpin peptide tested as a peptide hydrogel formed by adding PBS, NaCl solution or EMEM to its aqueous solution]
difference between the storage elastic modulus G and the loss elastic modulus G″ ([1]; comparative hydrogel produced with 5 wt % NaCl aqueous solution (final concentration)): approximately 3750 | difference between the storage elastic modulus G and the loss elastic modulus G″ ([1]; hydrogel produced with 3×PBS (final concentration)): approximately 3950 | loss elastic modulus G″ of the peptide hydrogel ([1]; hydrogel produced with 5×PBS (final concentration)): about 800 | storage elastic modulus G of the peptide hydrogel ([1]; hydrogel produced with 5×PBS (final concentration), 6% aqueous peptide solution mixed in equal amount): about 15,000 | macroscopic findings of the meniscus defect (rabbit meniscus defect; 2, 4, 8 and 12 weeks after transplantation (FIG. 4)): became smaller and repaired | safranin O-stained meniscus tissue findings (rabbit meniscus defect; 2, 4, 8 and 12 weeks after transplantation (FIG. 5)): cells gathered in the defect and the tissue was repaired | Ishida score (rabbit meniscus defect; [2]): higher in the KI24RGDS group than in the control group | R/D ratio (Occupation Ratio of Tissue Regeneration) (rabbit meniscus defect; [2]): higher in the KI24RGDS group than in the control group
